Where no end group is shown, it is not given here. [ ]: non-standard residue; d: D form. Bpa = N[C@@H](Cc1ccc(C(=O)c2ccccc2)cc1)C(=O)O
Biological target: recombinant CaM (UniProt P0DP23 1-149)
Assay: cross-linking; photoaffinity labelling (PAL)-based competition: CaM (5 µM) with segment-C-Bpa or segment-CS-Bpa (5 µM), competitor peptides 0–250 µM; 50 mM HEPES pH 7.2, 150 mM KCl, 5 mM DTT, 2 h RT, 200 µM Ca2+ or 2 mM EGTA; UV; SDS-PAGE and MALDI-TOF-MS
Conditions: both partners purified

Binder: CINN[Bpa]KNVLREKRLRQKKLLQELV (source: synthetic peptide) [Segment-CS-Bpa]
- binding result: binds

Reference: PMC7017353, “Delineating the Molecular Basis of the Calmodulin–bMunc13-2 Interaction by Cross-Linking/Mass Spectrometry—Evidence for a Novel CaM Binding Motif in bMunc13-2” (Cells, 2020)
